Results from patent publication US20090318349A1 (Novo Nordisk, published 2009).
Numbering of substitutions follows the chain as printed. Blank lines part the entries; values can stand above or below the binder they belong to.

Biological target: wild type human growth hormone (human, UniProt P01241 27-217)
Experiment: cell-based or functional assay

Sequence of wild type human growth hormone (P01241 27-217): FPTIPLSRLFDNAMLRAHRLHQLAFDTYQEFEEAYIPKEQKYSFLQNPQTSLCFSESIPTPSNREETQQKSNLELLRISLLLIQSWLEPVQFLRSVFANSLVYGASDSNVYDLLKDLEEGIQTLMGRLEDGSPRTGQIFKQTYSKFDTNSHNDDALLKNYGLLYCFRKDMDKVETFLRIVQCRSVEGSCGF

RS (relative selectivity): 1
Selectivity (Q141/Q40), CE: 5.7
B1: AlaPro-mTGase from S. mobaraensis (enzyme)
chain: APDSDDRVTPPAEPLDRMPDPYRPSYGRAETVVNNYIRKWQQVYSHRDGRKQQMTEEQREWLSYGCVGVTWVNSGQYPTNRLAFASFDEDRFKNELKNGRPRSGETRAEFEGRVAKESFDEEKGFQRAREVASVMNRALENAHDESAYLDNLKKELANGNDALRNEDARSPFYSALRNTPSFKERNGGNHDPSRMKAVIYSKHFWSGQDRSSSADKRKYGDPDAFRPAPGTGLVDMSRDRNIPRSPTSPGEGFVNFDYGWFGAQTEADADKTVWTHGNHYHAPNGSLGAMHVYESKFRNWSEGYSDFDRGAYVITFIPKSWNTAPDKVKQGWP

RS (relative selectivity): 1.8
Selectivity (Q141/Q40), CE: 10.3
B2: GlyPro-mTGase from S. ladakanum (enzyme)
chain: GPDSDERVTPPAEPLDRMPDPYRPSYGRAETIVNNYIRKWQQVYSHRDGRKQQMTEEQREWLSYGCVGVTWVNSGQYPTNRLAFAFFDEDKYKNELKNGRPRSGETRAEFEGRVAKDSFDEAKGFQRARDVASVMNKALENAHDEGAYLDNLKKELANGNDALRNEDARSPFYSALRNTPSFKDRNGGNHDPSKMKAVIYSKHFWSGQDRSGSSDKRKYGDPEAFRPDRGTGLVDMSRDRNIPRSPTSPGESFVNFDYGWFGAQTEADADKTVWTHGNHYHAPNGSLGAMHVYESKFRNWSDGYSDFDRGAYVVTFVPKSWNTAPDKVKQGWP

RS (relative selectivity): 5.1
Selectivity (Q141/Q40), CE: 29.1
B3: GlyPro-mTGase_Y75F from S. ladakanum (enzyme)
chain: B2 chain with Y77F

RS (relative selectivity): 4.6
Selectivity (Q141/Q40), CE: 26.3
B4: GlyPro-mTGase_Y62H_Y75N from S. ladakanum (enzyme)
chain: B2 chain with Y64H, Y77N

RS (relative selectivity): 3.4
Selectivity (Q141/Q40), CE: 19.3
B5: GlyPro-mTGase_Y75N from S. ladakanum (enzyme)
chain: B2 chain with Y77N

RS (relative selectivity): 3
Selectivity (Q141/Q40), CE: 17.3
B6: GlyPro-mTGase_Y75A from S. ladakanum (enzyme)
chain: B2 chain with Y77A

RS (relative selectivity): 6.4
Selectivity (Q141/Q40), CE: 36.2
B7: GlyPro-mTGase_Y62H_Y75F from S. ladakanum (enzyme)
chain: B2 chain with Y64H, Y77F, K329T
